From US20250154215A1, “PHARMACEUTICAL COMPOSITION FOR TREATING COLITIS OR COLORECTAL CANCER COMPRISING COLON-TARGETED S100A8/A9-DERIVED SPECIFIC PEPTIDE” (Industry-University Cooperation Foundation Hanyang …, priority 2023, published 2025)

Experiments:
[1] = system: OxaR CRC cells (HT29, HCT116 and SW480); test: WST-8-based cell viability assay in parental and drug-resistant CRC cell lines
Excerpt: To establish a CRC cell model resistant to oxaliplatin, doxorubicin, or 5-FU, HT29, HT116, and SW480 cells were exposed to progressively increasing concentrations of oxaliplatin, doxorubicin, or 5-FU. The established oxaliplatin, doxorubicin, and 5-FU resistant cells were named OxaR, DoxR, and 5-FuR cells, respectively.
To confirm the inhibitory effect of rCT-S100A8/A9 on oxaliplatin resistance, the present inventors performed a water-soluble tetrazolium-8 (WST-8)-based cell viability assay using parental cells of three CRC cell lines, HT29, HCT-116 and SW480, and their corresponding oxaliplatin-resistant (OxaR) cell lines. OxaR CRC cells (HT29, HCT116 and SW480) were established by long-term exposure of CRC cells to oxaliplatin as described in Example 1.

[2] = The results of in vitro plasma stability, microsomal stability, CYP inhibition and PK profile of S100A8/A9 peptides and rCT-S100A8/A9 proteins
Experimental: Table printed on a drawing sheet, Fig. 5B
Title: The results of in vitro plasma stability, microsomal stability, CYP inhibition and PK profile of S100A8/A9 peptides and rCT-S100A8/A9 proteins
(§1) The patent's description of the figure: FIGS. 5A and 5B show the drug-like properties of rCT-S100A8/A9. […] Bacteria-purified 6×His-rCT-S100A8/9, rVehicle or rCT was analyzed by Coomassie staining or IB using αHis (bottom, left). BMDMs were incubated with rVehicle, rCT, or rCT-S100A8/9 for the indicated times and at the indicated concentrations, and then cell viability was measured by MTT assay (bottom, right). […] HLM, human liver microsomes; CYP, cytochrome P450. aTmax, arrival time; AUClast, total area under the plasma concentration-time curve from time 0 to the time of the last measurement; Cmax, maximum plasma concentration;
First reader's note: All values were measured after ip dosing of 1 mg/kg in mice (n = 5); the footnote for the raised a is not printed on the sheet, and the title stands once above both tables.

[3] = design: species or system BALB/c mice; conditions: mouse, in vivo
Experimental: FIGS. 12A-12E show biological effects of rCT-S100A8/9 in tumor-bearing mice. […] Each vertical bar represents the mean±SD of cell viability at each dose. Data is shown as the mean±SD of six experiments. […] HCT116 cells were injected subcutaneously into the flanks of BALB/c mice as described in the Methods section. Mice were administered one or two intraperitoneal doses and sacrificed on day 5. Their expression was assessed by IB in various organs of mice. WCLs were used for IB including αActin. Data is representative of four independent experiments with similar results. […] E-cadherin, N-cadherin, and β-catenin staining of the tumors. […] IgG levels specific for rCT-S100A8/9 or ovalbumin (OVA) were measured using ELISA. […] Serum cytokine levels were measured 30 days after administration. […]
Cytokine content was analyzed in cell culture supernatants and mouse sera using the BD OptEIA ELISA set (BD Pharmingen) to detect TNF-α, IL-6, IL-1β, and IL-18. […]
A major concern with protein therapeutics derived from endogenous human proteins is that they may induce strong anti-therapeutic antibody responses and stimulate undesirable immune responses. […] Therefore, the immunogenicity of rCT-S100A8/A9 was assessed by measuring the production of anti-rCT-S100A8/A9 antibodies in mice immunized with the peptide according to the present invention. […]

[4] = system: BMDMs; format: cell-based, mouse
Experimental: as §1, with “FIGS.” for “The patent's description of the figure: FIGS.”, “[…],” for “P450. aTmax,”

[5] = system: OxaR HCT116 xenograft; test: Parental or OxaR HCT116 xenograft tumor growth inhibition; format: in vivo, mice
Experimental: For tumor xenograft experiments, 4- to 6-week-old female athymic nude mice (Central Lab Animal Inc., Seoul, Korea) were used. 1×10^6 HCT116 cells suspended in 0.1 mL of a cell culture medium were injected subcutaneously into the animals' right axillary region and observed for 7 to 10 days while the tumor volume was measured. Treatment was initiated when the tumor size reached an average volume of 200 or 600 mm^3. The tumor volume was measured with a skin caliper every three days, calculated as (tumor length)×(tumor width)^2×0.5, and expressed in mm^3. All animals were maintained in a specific pathogen-free environment. All animal-related procedures were examined and approved by the Hanyang University Institutional Animal Care and Use Committee (protocol numbers: 2022-0145 and 2022-0266).
Next, tumor growth inhibition assays were performed under various tumor growth conditions, and rCT-S100A8/A9 treatment was started according to the size of the established tumors. For initial tumor growth, rCT-S100A8/A9 treatment was started 10 days after tumor establishment, and for actively growing tumors, rCT-S100A8/A9 treatment was started 21 days after tumor establishment.

[6] = immunostaining, vs control group

B1: TWYKIAFQRNRKTWYKIAFQRNRKTWYKIAFQRNRKTWYKIAFQRNRKTWYKIAFQRNRKGGFLVIKGGAHKSHKGGITIITFGGGHHGGFLVIKGGAHKSHKGGITIITFGGGHHGGFLVIKGGAHKSHKGGITIITFGGGHHGG (protein)
chain: TWYKIAFQRNRKTWYKIAFQRNRKTWYKIAFQRNRKTWYKIAFQRNRKTWYKIAFQRNRKGGFLVIKGGAHKSHKGGITIITFGGGHHGGFLVIKGGAHKSHKGGITIITFGGGHHGGFLVIKGGAHKSHKGGITIITFGGGHHGG
modifications: N-terminal 6xHis tag
efficacy in doxorubicin-resistant (DoxR) and 5-fluorouracil-resistant (5-FuR) CRC cells ([1]; 24 h cell viability): exhibited efficacy against multidrug resistance
cell viability of OxaR CRC cells ([1]; HT29, HCT116, SW480 OxaR, 24 hours): reduced the viability of OxaR CRC cells
PK parameters (ip, 1 mg/kg, mice (n = 5))^a | AUClast [2]: 235.82 ± 51.48 ng·h/mL
PK parameters (ip, 1 mg/kg, mice (n = 5))^a | Cmax [2]: 213.12 ± 25.38 ng/mL
PK parameters (ip, 1 mg/kg, mice (n = 5))^a | T1/2 [2]: 1.91 ± 0.42 h
PK parameters (ip, 1 mg/kg, mice (n = 5))^a | Tmax [2]: 0.23 ± 0.0 h
production of pro-inflammatory cytokines [3]: negligible
cell viability [4]: no significant effect on cell viability
epithelial-to-mesenchymal transition in tumors (profiler PCR array) ([5]; HCT116 xenografts): regulates the involvement of epithelial-to-mesenchymal transition
interaction of S100 and PRRs in xenograft tumors ([5]; Western blot): significantly reduced
expression of E-cadherin in tumor sections [5, 6]: increased
expression of N-cadherin and β-catenin in tumor sections [5, 6]: decreased
tumor growth ([5]; initially growing and actively growing tumors): significantly inhibited tumor growth
